The source of these data is patent US20190300577A1 (BETH ISRAEL DEACONESS MEDICAL CENTER, published 2019).

For experiment [1], the target named is T1, recombinant human P-selectin Fc chimera (human, UniProt P16109 42-771).
T1 construct: also called P-sel-Ig; recombinant Ig chimera of P-selectin
The experiment is described as follows: Biacore; biotinylated glycopeptide captured on a streptavidin chip, hP-sel-Ig flowed over (trace shown at 20 µg/ml) [lower left panel 'hP-sel-Ig (20 µg/ml)' (D in the legend]. The source says:
(§1) GSnP-6 bound to E- and L-selectin with even lower apparent affinity.

The target in experiment [2] is T2, recombinant mouse P-selectin Fc chimera (mouse, UniProt Q01102 42-709).
T2 construct: also called murine P-selectin; P-sel-Ig; not shown: Ig (Fc) part of the chimera
T2 sequence (looked up): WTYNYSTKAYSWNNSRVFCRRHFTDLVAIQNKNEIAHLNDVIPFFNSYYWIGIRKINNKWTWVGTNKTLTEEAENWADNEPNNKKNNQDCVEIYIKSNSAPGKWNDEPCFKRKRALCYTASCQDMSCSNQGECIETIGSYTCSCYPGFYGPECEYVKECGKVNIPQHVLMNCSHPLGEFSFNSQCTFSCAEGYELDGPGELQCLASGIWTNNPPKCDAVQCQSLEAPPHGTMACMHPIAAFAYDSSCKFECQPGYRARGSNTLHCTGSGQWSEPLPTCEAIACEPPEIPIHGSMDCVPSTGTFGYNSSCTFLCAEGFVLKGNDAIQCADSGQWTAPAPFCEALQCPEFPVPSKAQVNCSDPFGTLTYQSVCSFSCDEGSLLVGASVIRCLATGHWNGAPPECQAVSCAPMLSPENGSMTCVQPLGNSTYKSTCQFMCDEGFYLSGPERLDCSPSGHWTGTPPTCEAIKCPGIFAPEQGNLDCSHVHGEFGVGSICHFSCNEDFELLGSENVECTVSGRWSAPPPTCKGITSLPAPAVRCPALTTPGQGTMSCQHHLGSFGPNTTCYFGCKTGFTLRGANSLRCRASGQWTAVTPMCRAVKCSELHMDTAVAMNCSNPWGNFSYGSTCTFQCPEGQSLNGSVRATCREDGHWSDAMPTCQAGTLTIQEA
The experiment is described as follows: Biacore; biotinylated glycopeptide captured on a streptavidin chip, mP-sel-Ig flowed over (trace shown at 20 µg/ml) [lower middle panel 'mP-sel-Ig (20 µg/ml)' (E in the legend].
From the text: as §1

Ends that are not written are not given here.

T1 sequence (P16109 42-771, change not shown): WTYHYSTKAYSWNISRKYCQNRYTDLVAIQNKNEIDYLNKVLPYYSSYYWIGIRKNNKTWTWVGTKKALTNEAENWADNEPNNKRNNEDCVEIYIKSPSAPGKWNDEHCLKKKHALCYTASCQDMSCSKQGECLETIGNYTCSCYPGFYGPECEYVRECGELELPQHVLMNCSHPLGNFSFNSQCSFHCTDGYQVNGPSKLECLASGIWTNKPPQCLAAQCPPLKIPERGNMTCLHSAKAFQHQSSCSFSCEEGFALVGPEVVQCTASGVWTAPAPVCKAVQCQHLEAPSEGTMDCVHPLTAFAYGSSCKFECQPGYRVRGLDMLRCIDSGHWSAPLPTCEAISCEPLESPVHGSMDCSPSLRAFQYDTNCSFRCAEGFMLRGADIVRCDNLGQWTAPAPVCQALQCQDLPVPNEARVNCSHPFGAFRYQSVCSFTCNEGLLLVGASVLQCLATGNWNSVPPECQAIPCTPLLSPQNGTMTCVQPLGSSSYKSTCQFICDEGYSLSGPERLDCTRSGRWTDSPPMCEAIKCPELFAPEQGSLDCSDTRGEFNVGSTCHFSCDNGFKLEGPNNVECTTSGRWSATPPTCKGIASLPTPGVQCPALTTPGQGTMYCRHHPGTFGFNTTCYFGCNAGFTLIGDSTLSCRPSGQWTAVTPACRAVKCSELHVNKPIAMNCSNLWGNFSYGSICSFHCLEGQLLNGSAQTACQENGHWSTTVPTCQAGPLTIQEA

B1: GSP-6 (peptide, UniProt Q14242 45-61, looked up)
peptide: EYEYLDYDFLPET(Core‑2 O‑glycan hexasaccharide with sLe^x)EPPE
modifications: also: tyrosine O-sulfate, positions not given here
notes: Synthetic glycosulfopeptide
For the molecule B1, the results for the Kd in experiment [1] and in experiment [2] were roughly 9 nM and roughly 128 nM, respectively.
